Measured values as given in paper doi:10.1101/2024.09.19.614007 (bioRxiv, 2024).

Biological target: the molecule itself
Assay: cryo-EM structure

B1: Escherichia coli glutamate kinase (enzyme, UniProt P0A7B5 1-367, looked up)
chain: MSDSQTLVVKLGTSVLTGGSRRLNRAHIVELVRQCAQLHAAGHRIVIVTSGAIAAGREHLGYPELPATIASKQLLAAVGQSRLIQLWEQLFSIYGIHVGQMLLTRADMEDRERFLNARDTLRALLDNNIVPVINENDAVATAEIKVGDNDNLSALAAILAGADKLLLLTDQKGLYTADPRSNPQAELIKDVYGIDDALRAIAGDSVSGLGTGGMSTKLQAADVACRAGIDTIIAAGSKPGVIGDVMEGISVGTLFHAQATPLENRKRWIFGAPPAGEITVDEGATAAILERGSSLLPKGIKSVTGNFSRGEVIRICNLEGRDIAHGVSRYNSDALRRIAGHHSQEIDAILGYEYGPVAVHRDDMITR
  stoichiometry N: 4
